Results taken from PMC9482650, “Quantitative fragmentomics allow affinity mapping of interactomes” (Nature Communications, 2022).

Legend:
Assay in all cases: holdup assay
Set-up in all cases: key: below the threshold = too weak to quantify, mostly under pKd 3.1 to 4
SCRIB_2, Q14160 = target: SCRIB_2, Q14160
NHERF3_1, Q5T2W1 = target: T1, NHERF3_1, Q5T2W1
T1 sequence (Q5T2W1 4-100, limits assumed, looked up): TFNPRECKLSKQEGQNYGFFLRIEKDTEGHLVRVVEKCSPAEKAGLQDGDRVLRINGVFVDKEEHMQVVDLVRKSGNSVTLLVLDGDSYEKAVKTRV

TJP1_2, Q07157 = target: TJP1_2, Q07157
Chain of TJP1_2, Q07157 (Q07157 181-274): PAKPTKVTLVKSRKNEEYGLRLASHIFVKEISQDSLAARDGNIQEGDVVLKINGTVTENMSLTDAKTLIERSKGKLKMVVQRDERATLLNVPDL

LRRC7, Q96NW7 = target: T2, LRRC7, Q96NW7
T2 sequence (Q96NW7 1440-1537, limits assumed, looked up): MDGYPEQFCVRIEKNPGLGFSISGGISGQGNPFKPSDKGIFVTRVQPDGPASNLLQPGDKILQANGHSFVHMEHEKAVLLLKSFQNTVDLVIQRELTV

GRIP2_3, Q9C0E4 = target: GRIP2_3, Q9C0E4
Chain of GRIP2_3, Q9C0E4 (Q9C0E4 238-339): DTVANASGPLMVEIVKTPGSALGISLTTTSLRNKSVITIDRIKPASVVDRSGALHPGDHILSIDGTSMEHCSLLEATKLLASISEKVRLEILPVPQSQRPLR

PDZRN3_1, Q9UPQ7 = target: T3, PDZRN3_1, Q9UPQ7
T3 sequence (Q9UPQ7 244-349, limits assumed, looked up): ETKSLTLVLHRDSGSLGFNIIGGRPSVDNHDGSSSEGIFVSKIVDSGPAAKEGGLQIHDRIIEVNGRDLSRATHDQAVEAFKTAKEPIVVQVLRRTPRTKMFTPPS

MPP6, Q9NZW5 = target: T4, MPP6, Q9NZW5
T4 sequence (Q9NZW5 125-219, limits assumed, looked up): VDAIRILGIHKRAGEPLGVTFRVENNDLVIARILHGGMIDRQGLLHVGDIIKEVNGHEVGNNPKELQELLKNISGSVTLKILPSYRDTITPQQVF

DLG2_2, Q15700 = target: DLG2_2, Q15700
TX1BP3, O14907 = target: T5, TX1BP3, O14907
T5 sequence (O14907 10-122, limits assumed, looked up): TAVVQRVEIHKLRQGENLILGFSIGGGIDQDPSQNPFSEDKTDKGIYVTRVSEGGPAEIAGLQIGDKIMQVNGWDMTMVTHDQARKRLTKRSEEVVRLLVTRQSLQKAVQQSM

ARHGEF12, Q9NZN5-2 = target: ARHGEF12, Q9NZN5-2
Chain of ARHGEF12, Q9NZN5-2 (Q9NZN5 other isoform, or with tags, fused parts or gaps): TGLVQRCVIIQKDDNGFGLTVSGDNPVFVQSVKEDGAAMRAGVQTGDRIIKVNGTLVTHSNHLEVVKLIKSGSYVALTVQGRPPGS

PDLIM1, O00151 = target: PDLIM1, O00151
Chain of PDLIM1, O00151 (O00151 1-87): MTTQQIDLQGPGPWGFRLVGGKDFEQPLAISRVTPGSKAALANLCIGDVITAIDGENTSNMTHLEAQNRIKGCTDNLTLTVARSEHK

LNX1_3, Q8TBB1 = target: LNX1_3, Q8TBB1
Chain of LNX1_3, Q8TBB1 (Q8TBB1 500-596): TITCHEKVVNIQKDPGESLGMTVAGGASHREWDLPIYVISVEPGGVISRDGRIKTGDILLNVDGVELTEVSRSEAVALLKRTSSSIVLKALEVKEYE

GRIP2_6, Q9C0E4 = target: GRIP2_6, Q9C0E4
Chain of GRIP2_6, Q9C0E4 (Q9C0E4 648-740): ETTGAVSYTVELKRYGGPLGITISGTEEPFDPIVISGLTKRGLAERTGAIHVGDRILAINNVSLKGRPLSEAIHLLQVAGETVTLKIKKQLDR

LIN7B, Q9HAP6 = target: T6, LIN7B, Q9HAP6
T6 sequence (Q9HAP6 88-185, limits assumed, looked up): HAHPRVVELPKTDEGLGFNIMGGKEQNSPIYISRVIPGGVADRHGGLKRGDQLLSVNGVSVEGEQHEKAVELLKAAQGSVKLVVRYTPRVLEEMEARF

GRIP2_5, Q9C0E4 = target: GRIP2_5, Q9C0E4
Chain of GRIP2_5, Q9C0E4 (Q9C0E4 544-642): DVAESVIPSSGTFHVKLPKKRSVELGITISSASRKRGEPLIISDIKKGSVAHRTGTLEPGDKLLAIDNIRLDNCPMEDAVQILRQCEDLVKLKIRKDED

NHERF3_4, Q5T2W1 = target: T7, NHERF3_4, Q5T2W1
T7 sequence (Q5T2W1 373-468, limits assumed, looked up): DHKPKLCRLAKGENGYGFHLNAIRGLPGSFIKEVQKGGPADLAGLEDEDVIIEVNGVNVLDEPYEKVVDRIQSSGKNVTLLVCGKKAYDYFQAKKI

HTRA4, P83105 = target: T8, HTRA4, P83105
T8 sequence (P83105 378-476, limits assumed, looked up): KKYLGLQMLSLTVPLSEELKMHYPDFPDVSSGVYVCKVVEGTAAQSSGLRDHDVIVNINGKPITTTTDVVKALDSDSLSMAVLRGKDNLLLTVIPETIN

LDB3, O75112 = target: LDB3, O75112
Chain of LDB3, O75112 (O75112 1-94): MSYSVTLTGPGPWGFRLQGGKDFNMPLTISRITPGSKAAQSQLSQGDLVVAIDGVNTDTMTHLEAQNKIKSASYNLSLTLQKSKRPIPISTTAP

FRMPD2_1, Q68DX3 = target: FRMPD2_1, Q68DX3
Chain of FRMPD2_1, Q68DX3 (Q68DX3 770-861): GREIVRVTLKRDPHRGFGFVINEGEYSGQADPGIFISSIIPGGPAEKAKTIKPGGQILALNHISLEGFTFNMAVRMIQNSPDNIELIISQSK

DLG2_3, Q15700 = target: DLG2_3, Q15700
DLG3_1, Q92796 = target: T9, DLG3_1, Q92796
T9 sequence (Q92796 125-227, limits assumed, looked up): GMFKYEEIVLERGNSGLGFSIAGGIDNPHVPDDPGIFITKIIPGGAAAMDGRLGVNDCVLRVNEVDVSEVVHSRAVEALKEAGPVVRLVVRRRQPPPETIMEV

GORASP2, Q9H8Y8 = target: GORASP2, Q9H8Y8
SNTB1, Q13884 = target: T10, SNTB1, Q13884
T10 sequence (Q13884 107-205, limits assumed, looked up): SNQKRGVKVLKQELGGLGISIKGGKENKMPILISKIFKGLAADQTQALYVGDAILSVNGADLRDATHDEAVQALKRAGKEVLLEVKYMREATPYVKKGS

MAST2, Q6P0Q8 = target: MAST2, Q6P0Q8
Chain of MAST2, Q6P0Q8 (Q6P0Q8 1099-1202): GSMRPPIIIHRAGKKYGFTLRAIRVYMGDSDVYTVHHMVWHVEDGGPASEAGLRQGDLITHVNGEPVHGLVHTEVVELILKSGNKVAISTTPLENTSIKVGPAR

MPP2, Q14168 = target: T11, MPP2, Q14168
T11 sequence (Q14168 180-250, limits assumed, looked up): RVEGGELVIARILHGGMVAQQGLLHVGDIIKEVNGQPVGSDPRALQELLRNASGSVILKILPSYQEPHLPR

Inadl_1, Q8NI35 = target: Inadl_1, Q8NI35
Chain of Inadl_1, Q8NI35 (Q8NI35 113-229): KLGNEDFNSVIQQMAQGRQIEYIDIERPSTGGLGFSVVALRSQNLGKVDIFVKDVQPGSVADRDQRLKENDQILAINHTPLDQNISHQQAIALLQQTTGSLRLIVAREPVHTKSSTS

[1] = plain residues with an end cap or a label only (N-terminal biotin on a linker: ttds)
[2] = plain residues with an end cap or a label only (N-terminal biotin on a linker: ahx)

Chain of SCRIB_2, Q14160 (Q14160 857-960): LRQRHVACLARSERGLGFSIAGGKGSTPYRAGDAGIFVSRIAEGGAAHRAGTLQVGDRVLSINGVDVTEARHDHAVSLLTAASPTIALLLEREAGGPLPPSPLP

With SEKHFRETEV [HTLV1-TAX1, P03409] the pKd (SCRIB_2, Q14160; [1]) was 5.76, the pKd (NHERF3_1, Q5T2W1; [1]) was 4.71 and the pKd (TJP1_2, Q07157; [1]) was “below the threshold”. For the same binder, the pKd (LRRC7, Q96NW7; [1]) was 4.69, the pKd (GRIP2_3, Q9C0E4; [1]) was “below the threshold” and the pKd (PDZRN3_1, Q9UPQ7; [1]) was 5.1. The pKd (MPP6, Q9NZW5; [1]) was “below the threshold”, the pKd (DLG2_2, Q15700; [1]) was 5.21 and the pKd (TX1BP3, O14907; [1]) was 6.2. It also gave a pKd (ARHGEF12, Q9NZN5-2; [1]) of 3.81, a pKd (PDLIM1, O00151; [1]) of 3.69 and a pKd (LNX1_3, Q8TBB1; [1]) of 3.64. The pKd (GRIP2_6, Q9C0E4; [1]) was “below the threshold”, the pKd (LIN7B, Q9HAP6; [1]) was 3.83 and the pKd (GRIP2_5, Q9C0E4; [1]) was “below the threshold”. For the same binder, the pKd (NHERF3_4, Q5T2W1; [1]) was “below the threshold”, the pKd (HTRA4, P83105; [1]) was “below the threshold” and the pKd (LDB3, O75112; [1]) was “below the threshold”. The pKd (FRMPD2_1, Q68DX3; [1]) was 3.75, the pKd (DLG2_3, Q15700; [1]) was 5.36 and the pKd (DLG3_1, Q92796; [1]) was 4.58. For the same binder, the pKd (GORASP2, Q9H8Y8; [1]) was “below the threshold”, the pKd (SNTB1, Q13884; [1]) was 6.12 and the pKd (MAST2, Q6P0Q8; [1]) was 5.42. For the same binder, the pKd (MPP2, Q14168; [1]) was “below the threshold” and the pKd (Inadl_1, Q8NI35; [1]) was “below the threshold”.

With EKLSSIESDV [GRIN2B, Q13224] the pKd (SCRIB_2, Q14160; [2]) was 4.34, the pKd (NHERF3_1, Q5T2W1; [2]) was “below the threshold” and the pKd (TJP1_2, Q07157; [2]) was “below the threshold”. The pKd (LRRC7, Q96NW7; [2]) was 3.63, the pKd (GRIP2_3, Q9C0E4; [2]) was “below the threshold” and the pKd (PDZRN3_1, Q9UPQ7; [2]) was 3.7. The pKd (MPP6, Q9NZW5; [2]) was “below the threshold”, the pKd (DLG2_2, Q15700; [2]) was “below the threshold” and the pKd (TX1BP3, O14907; [2]) was 4.74. The pKd (ARHGEF12, Q9NZN5-2; [2]) was 3.68, the pKd (PDLIM1, O00151; [2]) was 3.71 and the pKd (LNX1_3, Q8TBB1; [2]) was “below the threshold”. The pKd (GRIP2_6, Q9C0E4; [2]) was “below the threshold”, the pKd (LIN7B, Q9HAP6; [2]) was “below the threshold” and the pKd (GRIP2_5, Q9C0E4; [2]) was “below the threshold”. For the same binder, the pKd (NHERF3_4, Q5T2W1; [2]) was “below the threshold”, the pKd (HTRA4, P83105; [2]) was “below the threshold” and the pKd (LDB3, O75112; [2]) was “below the threshold”. For the same binder, the pKd (FRMPD2_1, Q68DX3; [2]) was “below the threshold”, the pKd (DLG2_3, Q15700; [2]) was 4.56 and the pKd (DLG3_1, Q92796; [2]) was 4.15. The pKd (GORASP2, Q9H8Y8; [2]) was “below the threshold”, the pKd (SNTB1, Q13884; [2]) was 4.46 and the pKd (MAST2, Q6P0Q8; [2]) was 4.49. For the same binder, the pKd (MPP2, Q14168; [2]) was “below the threshold” and the pKd (Inadl_1, Q8NI35; [2]) was “below the threshold”.

For VNKVWDQSSV [CIT, O14578], the pKd (SCRIB_2, Q14160; [1]) was 3.51, the pKd (NHERF3_1, Q5T2W1; [1]) was “below the threshold” and the pKd (TJP1_2, Q07157; [1]) was “below the threshold”. For the same binder, the pKd (LRRC7, Q96NW7; [1]) was “below the threshold”, the pKd (GRIP2_3, Q9C0E4; [1]) was “below the threshold” and the pKd (PDZRN3_1, Q9UPQ7; [1]) was 3.53. The pKd (MPP6, Q9NZW5; [1]) was “below the threshold”, the pKd (DLG2_2, Q15700; [1]) was “below the threshold” and the pKd (TX1BP3, O14907; [1]) was 6.25. For the same binder, the pKd (ARHGEF12, Q9NZN5-2; [1]) was “below the threshold”, the pKd (PDLIM1, O00151; [1]) was “below the threshold” and the pKd (LNX1_3, Q8TBB1; [1]) was “below the threshold”. The pKd (GRIP2_6, Q9C0E4; [1]) was “below the threshold”, the pKd (LIN7B, Q9HAP6; [1]) was “below the threshold” and the pKd (GRIP2_5, Q9C0E4; [1]) was “below the threshold”. For the same binder, the pKd (NHERF3_4, Q5T2W1; [1]) was “below the threshold”, the pKd (HTRA4, P83105; [1]) was “below the threshold” and the pKd (LDB3, O75112; [1]) was “below the threshold”. For the same binder, the pKd (FRMPD2_1, Q68DX3; [1]) was “below the threshold”, the pKd (DLG2_3, Q15700; [1]) was 3.71 and the pKd (DLG3_1, Q92796; [1]) was “below the threshold”. The pKd (GORASP2, Q9H8Y8; [1]) was “below the threshold”, the pKd (SNTB1, Q13884; [1]) was “below the threshold” and the pKd (MAST2, Q6P0Q8; [1]) was 5.14. For the same binder, the pKd (MPP2, Q14168; [1]) was “below the threshold” and the pKd (Inadl_1, Q8NI35; [1]) was “below the threshold”.
